Data taken from patent publication US20260258115A1 (MAPP BIOPHARMACEUTICAL, published 2026).

B1: ADI-41841 (antibody, V domains shown)
VH: EVQLLESGGGLVKPGGSLRLSCAASGFSFSYYSMNWVRQTPGKGLEWVSSISDRSSYISYADSVKGRFTISRDNAKNSLYLQMNSLRAEDTAVYYCARDQYESYAFDIWGQGTTVTVSS
VL: DIQVTQSPSSLSASVGDRITITCQASQDVGNYLNWYQQKVGKAPKLLIHDASDLETGVPSRFSGSGSGTYFTFTISSLQPEDFATYYCQPYDNLRPVTFGQGTRLEIK
B2: ADI-41817 (antibody, V domains shown)
VH: QVQLVQSGAEVKKPGESLKISCKGPGYSFTTYWIGWVRQMPGKGLEWMGIIYPGDSDTKYSPSFQGQVTITADKSIATAYLQWSRLKASDTAVYYCATVVTYADNIRWFDSWGQGTLVTVSS
VL: QSALTQPASVSGSPGQSITISCTGTSGDVGGYKFVSWYQHHPGKAPKLVIYDVANRPSGVSDRFSGSKSGTTASLTISGLQAEDEADYYCSSYTSSSTYVFGTGTKVTAL
B3: ADI-41818 (antibody, V domains shown)
VH: EVQLVESGGGLVQPGGSLRLSCAASGFTVNTNYMSWVRQAPGKGLEWVSIIYSSGSTSYADSVKGRFTISRDNSENTLYLQMHTLRAEDTAVYYCVRERTPFYYVSSGYWDSWGQGTLVTVSS
VL: EIVLTQSPGTLSLSPGERATLSCRASQSVDSSYLAWYQQKPGQAPRLLIFGASSRATGIPDRFSGSGSGTDFTLTISRLEPEDFAVYYCQQYGFSYTFGQGTKVEIK
B4: ADI-41842 (antibody, V domains shown)
VH: QVQLVQSGAEVKKPGASVRVSCKASGYTFTHYDINWVRQAPGQGLEWMGWINPNSGDTDYAQKFQGRVTMTVDTSISTAYLDLRSLTSADAAVYYCARGGAYATNGYYIIWFDPWGQGTLVTVSS
VL: DIVVTQSPSSLSASVGDRVTITCRASQSISRYLNWFQKKPGKAPHLLIYAASILQSEVPSRFSGSGSGTDFTLTISSLQPEDFATYYCQQSYNSPYTFGPGTKVDIK
notes: also called Ab 942; Antibody Number 942
B5: ADI-41814 (antibody, V domains shown)
VH: EVQLLESGPTLVKPTQTLTLTCTFSGFSLSTFGVGVGWIRQPPGKALECLALIYWDDDKRYSPSLKSRLTITRDTSKNQVVLTMTNMDPVDTATYYCAHRRSSTVTTGFFDYWGRGTLVTVSS
VL: QPVLTQPPSVSGAPGQRVTVSCTGNSSNIGAGHGAHWYQQLPGTAPKLLIYGSTDRPSGVPDRFFGSQSGTSASLVITELRAEDEADYYCQSFDSSLSIWVFGGGTKLTVL
notes: also called Ab 921; Antibody Number 921
B6: ADI-20974 (antibody, V domains shown)
VH: EVQLVESGGGLVKPGGSLRLSCAASGFSFSSYQINWVRQAPGKGLEWVSSISGGSSYTDYADSIKGRFTISRDNAKKSAFLQMKSLRADDTAVYYCARALMATAGGLAFDIWGQGTMVTVSS
VL: QPVLTQPPSVSGAPGQRVTISCTGSGSNIGAGYDVHWYQQVPGTAPKLLILRNTNRPSGVPDRFSGSKSGTSASLAITGLQAEDEADYYCQSYDRSLSVVFGGGTKLTVL
B7: ADI-41221 (antibody, V domains shown)
VH: EVQLLESGGGLVKPGGSLRLSCAASGFTFSDYTMNWVRQAPGKGLEWVSSISITSSHIYYADSVKGRFTISRDNAKNSLYLQINSLRAEDTAAYYCARELGFASSSYSYYYGMDVWGQGTTVTVSS
VL: QSALTQPRSVSGSPGQSVTISCTGTSSDVGDYNSVSWYQQHPGTAPKLIIFDVTQRPSGVPDRFSGSKSANTASLTISGLQPEDEADYYCCSFAGNYVFGTGTKVTVL
B8: ADI-41596 (antibody, V domains shown)
VH: QVQLQQWGAGLLKPSETLSLTCAVYGDSFSGYFWTWIRQPPGKGLEWIGEINLSGSTNYNPSLKSRVTILVDTSKNQFSLKLSSVTAADTAVYYCARGLHVSDDQDSSGYYFHPGSFDYWGQGTLVTVSS
VL: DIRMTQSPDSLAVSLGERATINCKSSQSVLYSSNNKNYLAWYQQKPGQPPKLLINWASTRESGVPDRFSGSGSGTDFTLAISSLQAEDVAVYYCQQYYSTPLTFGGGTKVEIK
notes: also called Ab 870; Antibody Number 870
B9: ADI-41229 (antibody, V domains shown)
VH: QVQLVQSGGGVVQPGRSLKLSCAASGFTFKSYGMHWVRQAPGKGLEWVAVISYDEINKYYADSVKGRFTISRDYSKNTLSLQMNSLTTEDTAMYYCAKPKTTGYYYLDAFDFWGQGTMVTVSS
VL: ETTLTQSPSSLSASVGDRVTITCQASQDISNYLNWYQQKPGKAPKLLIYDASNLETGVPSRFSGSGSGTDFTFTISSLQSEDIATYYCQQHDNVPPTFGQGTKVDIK
notes: also called Ab 551; Antibody Number 551
B10: ADI-41406 (antibody, V domains shown)
VH: EVQLVESGGNLVQPGGSLRLSCAASGFTFSSYVMNWVRQAPGKGLEWVSGISGSGGTSYYADSVKGRFTISRDNSNNTLYLQMKSLRAEDTAVYYCAKDPRFQKWLIEGTNWFDSWGQGTLVTVSS
VL: DIQVTQSPSSLSASVGDRVTITCRASQDVSNYLAWFQQKPGTAPKSLIYAASILQSGVPSKFRGSGSGTDFSLTISSLQPEDFATYYCQQYRSFPPTFGGGTKVEIK
notes: IgG1; also called Ab 698
B11: ADI-41361 (antibody, V domains shown)
VH: QVQLQESGGGVVQPGRSLRLSCAASGFAFSDYAMDWVRQAPGKGLEWVAVISFDGSNKFYADSVKGRFTISRDNSENTLFLQMNSLRAEDTAVYYCVRDFVPCSGATCYLPPVYWGRGTLVTVSS
VL: EIVLTQSPATLSVSPGERATLSCRASQSVSSDLAWYQQKPGQAPRLLIYGASTRATGIPARFSGSGSGTEFTLTISRLQSEDFAVYFCQQYNNWPSWTFGQGTKVEIK
notes: IgG1; also called Ab 658
B12: ADI-41400 (antibody, V domains shown)
VH: EVQLLESGGGLIQPGGSLRLSCAASKFTFSDYEMNWVRQAPGKGLEWLSYISSSGGIMYYADSVKGRFTISRDNAKNSLYLQMNSLRAEDTAVYFCARAGRLLSGLDVWGHGTTVTVSS
VL: EIVLTQSPSTLSASVGDRVTITCRASQSISPWLAWYQQKPGKAPKLLIYRASSLETGVPPRFSGSGSGTEFTLTISSLQPDDFATYYCQHYNSYLYSFGQGTKVEIK
notes: IgG1; also called Ab 693
B13: ADI-41379 (antibody, V domains shown)
VH: QVQLVQSGAEVKKPGESLKISCKGSGYSFSSFWIGWVRQMPGKGLEWMGIIYPGDSDTRYSPSFKGQVTISADTSISTAYLQWSSLKASDTAMYYCAKSIVGSTGSFDPWGQGTLVTVSS
VL: DIQMTQSPSSLSASVGDRVTITCQASQDISNFLNWYQQKPGKAPKLLIYDASNLRTGVPSRFSGSGSGTEFTFTISSLQPEDIATYYCQQYHDLPPLTFGGGTKVDIK
notes: IgG1
B14: ADI-41420 (antibody, V domains shown)
VH: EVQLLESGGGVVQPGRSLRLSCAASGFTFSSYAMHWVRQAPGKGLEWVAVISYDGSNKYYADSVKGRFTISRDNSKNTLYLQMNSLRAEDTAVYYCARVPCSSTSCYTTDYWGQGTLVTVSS
VL: QPVLTQPPSVSGSPGQSVTISCTGTSSDVGSYNRVSWYQQPPGTAPKLMIYEVSNRPSGVPDRFSGSKSGNTASLTISGLQAEDEADYYCSSYTSSSPVFGGGTKVTVL
notes: IgG1
B15: ADI-41435 (antibody, V domains shown)
VH: EVQLLESGGGLVKPGGSLRLSCAASGFTFSSYSLNWVRQAPGKGLEWVSSISSSGTYIFYADSVKGRFTISRDNAKDSLFLQMNSLRAEDTAVYYCARARDMGNYDILTGYYRVDAFDIWGQGTMVTVSS
VL: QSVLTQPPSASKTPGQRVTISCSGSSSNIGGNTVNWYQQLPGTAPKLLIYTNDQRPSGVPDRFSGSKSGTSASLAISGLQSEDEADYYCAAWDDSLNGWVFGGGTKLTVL
notes: IgG1
B16: ADI-41350 (antibody, V domains shown)
VH: EVQLVESGAGLVQPGGSLRLSCAASGFTFSTYAVSWVRQAPGKGLEWVSAISGSGASTYFADSVKGRFTISRDNSKNTLYLQMNSLRAEDTAVYYCAKARLELRPYYYGMDVWGQGTTVTVSS
VL: QPVLTQPASVSGSPGQSITISCTGTSSDVGGYNFVSWYQQHPGKAPKLIIYEVSNRPSGVSNRFSGSKSGNTASLTISGLQAEDEADYYCSSSTLSTTYVFGTGTKVTVL
notes: IgG1

The binders below were run against T1, RSV F on RSV subtype A virus (RSV-A2) (Respiratory Syncytial Virus, subtype A, …, UniProt P03420 26-574) (assay: cell-based or functional assay).

Going from B1 to B2, the “Neutralization IC50 (RSV subtype A)” value rises from 0.04 µg/mL to > 25 µg/mL.

B3 and B4 cannot be ordered by “Neutralization IC50 (RSV subtype A)” value: > 25 µg/mL for the first, > 25 µg/mL for the second.

For B5, the “Neutralization IC50 (RSV subtype A)” value was > 25 µg/mL.

The binders below were run against RSV F on RSV subtype B virus (mKate-RSV B 18537) (Respiratory Syncytial Virus, subtype B, …, UniProt P13843 26-574) (assay: cell-based or functional assay).

In the case of B6, the “neut IC50 (ug/ml) subtype B (graham)” value is reported as 0.09 µg/mL.

Molecular target: T1, RSV F on RSV subtype A virus (RSV-A2)
Test: cell-based or functional assay
Remark: another data set of the same source

In order of rising “Neutralization - RSV A2 IC50 (pM)” value:
1. B7  65.4 pM
2. B6  75.4 pM
3. B8  180 pM
4. B9  228 pM

In order of rising “neut IC50 (ug/ml) subtype A (wright)” value:
1. B7  0.04 µg/mL
2. B8  0.054 µg/mL
3. B9  0.066 µg/mL

B6 was tested, and the “neut IC50 (ug/ml) subtype A (graham)” value was 0.003 µg/mL.

Each binder was assayed against T2, RSV postfusion F (postF), F ΔFP trimer, subtype A (Respiratory Syncytial Virus, subtype A, UniProt P03420 26-513) (assay: BLI, IgG (Table 9A)).

B6: no binding.

These binders were tested against T3, RSV prefusion F (preF), DS-Cav1 stabilized trimer, subtype A (Respiratory Syncytial Virus, subtype A, UniProt P03420 26-513) (assay: BLI, apparent IgG KD (Table 9A)).

In order of rising Kd:
1. B6  0.29 nM
2. B7  0.3 nM
3. B8  0.3 nM
4. B9  1.1 nM

The binders below were run against T2, RSV postfusion F (postF), F ΔFP trimer, … (assay: BLI, apparent IgG KD (Table 9A)).

In order of falling Kd:
1. B9  0.71 nM
2. B8  0.44 nM
3. B7  0.32 nM

These binders were tested against T3, RSV prefusion F (preF), DS-Cav1 … (assay: BLI, IgG on anti-human IgG sensors, 100 nM antigen, apparent KD).

In order of rising Kd:
1. B1  0.121 nM
2. B3  0.676 nM
3. B4  0.717 nM
4. B5  3.39 nM
5. B2  6.94 nM

What follows are binders tested against T2, RSV postfusion F (postF), F ΔFP trimer, … in the same assay as above.

In order of falling Kd:
1. B2  15.8 nM
2. B5  0.915 nM
3. B4  0.442 nM
4. B3  0.347 nM
5. B1  0.265 nM

The binders below were run against RSV fusion glycoprotein (RSV F) on RSV-A2 virus (respiratory syncytial virus, UniProt P03420 26-574) (assay: cell-based or functional assay).

First: B10
Second: B11
The “Neutralization IC50 (RSV subtype A)” value of the first is higher: > 25 µg/mL for the first, 2.54 µg/mL for the second.

B12 and B13 cannot be ordered by “Neutralization IC50 (RSV subtype A)” value: > 25 µg/mL for the first, > 25 µg/mL for the second.

B14 and B15 cannot be ordered by “Neutralization IC50 (RSV subtype A)” value: > 25 µg/mL for the first, > 25 µg/mL for the second.

For B16, the “Neutralization IC50 (RSV subtype A)” value was > 25 µg/mL.

The binders below were run against RSV postfusion F (postF), F deltaFP (respiratory syncytial virus, UniProt P03420 26-513) (assay: BLI, IgG on sensor, 100 nM antigen).

In order of rising Kd:
1. B11  0.383 nM
2. B12  0.547 nM
3. B10  0.571 nM
4. B16  0.602 nM
5. B13  1.11 nM
6. B15  3.47 nM
7. B14  110 nM

What follows are binders tested against RSV prefusion F (preF), DS-Cav1 (respiratory syncytial virus, UniProt P03420 26-513) (assay: BLI, IgG on sensor).

B10: no binding (tested: 100 nM antigen).
B11: no binding (tested: 100 nM antigen).
B12: no binding (tested: 100 nM antigen).
B13: no binding (tested: 100 nM antigen).
B14: no binding (tested: 100 nM antigen).
B15: no binding (tested: 100 nM antigen).
B16: no binding (tested: 100 nM antigen).
